Test results from patent publication US20250034266A1 (ZAI LAB SHANGHAI, published 2025).
Read-outs that look alike come from different tables or passages of the source.

Key:
human CCR8 [1] = molecular target: T1, human CCR8 (human, UniProt P51685 1-355); experiment: FACS, competition with AF647-human CCL1 on CHO-K1-human CCR8 cells
T1 construct: whole, on cells; also called hCCR8

cynomolgus CCR8 [2] = molecular target: T2, cynomolgus CCR8 (cynomolgus, UniProt G7NYJ2 1-355); experiment: FACS on HEK293-cynomolgus CCR8 cells
T2 construct: whole, on cells
Method: (§1) A total of 5×10⁴ cells for each well were seeded in 96-well plates and washed with FACS buffer (DPBD containing 1.5% FBS) for once. Antibodies were prepared with 3-fold serial dilution ranging from 100 nM to 0.0017 nM in FACS buffer. Cells were incubated with 50 μL of diluted antibodies at 4° C. for 1 hour. […] After primary antibody incubation, cells were washed for 3 times by FACS buffer. Then, cells were stained by Alexa Flu647 labeled anti-human IgG secondary antibody (Jackson ImmunoResearch, #109606170) or Alexa Flu647 labeled anti-mouse IgG secondary antibody (Jackson ImmunoResearch, #115605072) at 1:600 dilution in FACS buffer for 0.5 hour at 4° C. After washed for 3 times, Flow cytometry was performed to measure the binding.

human CCR8 [3] = molecular target: T1, human CCR8; experiment: FACS on HEK293-human CCR8 cells
Method: as §1

human CCR8 [4] = molecular target: T1, human CCR8; experiment: FACS on CHO-K1-human CCR8 cells
human CCR8 [5] = molecular target: T1, human CCR8; experiment: FACS on HuT78 cells (endogenous human CCR8)
Method: HuT78 cells expressing endogenous human CCR8 were used for determining binding affinities of selected affinity matured anti-CCR8 antibodies. Briefly, a total of […] cells for each well were seeded in 96-well plates and washed with FACS buffer (DPBS containing […]) for once. […] Cells were incubated with 50 μL of diluted antibodies at 4° C. for 1 hour. After primary antibody incubation, cells were washed for 3 times by FACS buffer. Then, cells were stained by Alexa Fbu647 labeled anti-human IgG secondary antibody (Jackson ImmunoResearch, #109606170) at 1:600 dilution in FACS buffer for 0.5 hour at 4° C. After 3 times washed, flow cytometry (Sartourius, iQue3) was performed to measure the binding affinities of antibodies. […]

human CCR8 [6] = molecular target: T1, human CCR8; experiment: FACS, competition with CCL1 on CHO-K1-human CCR8 cells
cynomolgus CCR8 [7] = molecular target: T2, cynomolgus CCR8; experiment: FACS on HEK293-cynomolgus CCR8 cells; remark: listed apart in the source
human CCR8 [8] = molecular target: T1, human CCR8; experiment: FACS on HEK293-human CCR8 cells; remark: listed apart in the source
Method: (§2) Binding affinities of NG site removed antibodies were determined on human CCR8 and cynomolgus CCR8 overexpression cells. Briefly, CFSE labeled HEK293-human CCR8 cells or CFSE labeled HEK293-cynomolgus CCR8 cells were mixed with HEK293 cells. The mixed ratio was 1:1. A total of 5×10⁴ mixed cells for each well were seeded in 96-well plates and washed by FACS buffer (DPBS containing 1% FBS) once. Cells were incubated by serial diluted purified hybridoma antibodies for 1 hour at 4° C. Antibodies were prepared with 3-fold serial dilution ranging from 100 nM to 0.0017 nM or from 25.3165 nM to 0.0004 nM in FACS buffer. […] After primary antibody incubation, cells were washed by FACS buffer for three times. Then, cells were stained with secondary antibody (Alexa Flu647-conj gated rabbit anti-mouse IgG, Jackson ImmunoResearch, #315606046) at 1:600 dilution in FACS buffer, incubated for 0.5 hour at 4° C. […] FlowJo software was used for analysis. Data was plotted as the logarithm of antibody concentration versus mean fluorescence signals. EC₅₀ values were calculated in GraphPad Prism 8 (GraphPad Software) using a log (agonist) vs. response-Variable slope (4 parameters) curve fit.

cynomolgus CCR8 [9] = molecular target: T2, cynomolgus CCR8; experiment: FACS on HEK293-cynomolgus CCR8 cells; remark: listed apart in the source
Method: as §2

human CCR8 [10] = molecular target: T1, human CCR8; experiment: FACS, competition with AF647-human CCL1 on CHO-K1-human CCR8 cells; remark: listed apart in the source
Method: Blocking curves were generated to rank the blocking activities of PTM sites removed antibodies. Briefly, a total of 5×10⁴ CHO-K1-human CCR8 cells for each well were seeded in 96-well plate. Cells were incubated by series diluted purified hybridoma antibodies and 4 nM AF647 labeled human CCL1 (Almac, #CAF-07) for 1 hour at 4° C. Antibodies were prepared with 3-fold serial dilution ranging from 100 nM to 0.0051 nM in FACS buffer. Then, cells were washed by FACS buffer for three times after incubation. […] FlowJo software was used for analysis. Data was plotted as the logarithm of antibody concentration versus mean fluorescence signals. IC₅₀ values were determined in GraphPad Prism 8 (GraphPad Software) using a log(agonist) vs. response-Variable slope (4 parameters) curve fit.

T2 sequence (G7NYJ2 entry or part of it): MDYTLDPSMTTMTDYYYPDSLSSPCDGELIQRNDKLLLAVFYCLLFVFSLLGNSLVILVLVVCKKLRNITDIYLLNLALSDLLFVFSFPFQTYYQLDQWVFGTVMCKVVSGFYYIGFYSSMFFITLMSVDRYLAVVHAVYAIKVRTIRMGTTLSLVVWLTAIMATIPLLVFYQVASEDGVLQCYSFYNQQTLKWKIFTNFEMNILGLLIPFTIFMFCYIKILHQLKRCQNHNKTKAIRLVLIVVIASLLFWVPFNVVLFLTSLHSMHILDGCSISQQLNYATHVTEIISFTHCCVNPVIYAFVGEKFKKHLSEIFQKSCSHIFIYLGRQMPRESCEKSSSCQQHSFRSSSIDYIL
T1 sequence (P51685 whole entry): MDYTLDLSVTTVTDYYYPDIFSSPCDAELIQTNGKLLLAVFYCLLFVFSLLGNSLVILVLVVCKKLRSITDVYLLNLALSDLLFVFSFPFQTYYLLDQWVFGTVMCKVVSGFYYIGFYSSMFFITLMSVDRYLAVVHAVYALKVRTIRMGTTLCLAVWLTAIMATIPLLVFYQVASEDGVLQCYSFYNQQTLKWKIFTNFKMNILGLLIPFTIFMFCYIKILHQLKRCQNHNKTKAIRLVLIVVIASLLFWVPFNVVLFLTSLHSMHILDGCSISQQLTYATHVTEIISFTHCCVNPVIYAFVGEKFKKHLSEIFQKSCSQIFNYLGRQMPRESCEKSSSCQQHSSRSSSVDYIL

Binder | EC50 (human CCR8 [8]) [pM] | Max MFI (human CCR8 [8]) [MFI] | EC50 (cynomolgus CCR8 [9]) [pM] | Max MFI (cynomolgus CCR8 [9]) [MFI] | IC50 (human CCR8 [10]) [pM] | Max Inhibition (%) (human CCR8 [10]) | further results
Hu149-1 (antibody, V domains shown, humanized IgG, detected with anti-human IgG) VH: EVQLVESGGGLVQPGGSLKLSCAASGFTFNTYAMNWVRQASGKGLEWVGRIRSKSNFYATYYAASVKGRFTISRDDSKNTAYLQMNSLKTEDTAVYYCVRGRDYGSSYAMDYWGQGTLVTVSS VL: DIVMTQSPLSLPVTPGEPASISCRSSKSLLHSNANTYLYWFLQKPGQSPQLLIYRMSNLASGVPDRFSGSGSGTDFTLKISRVEAEDVGVYYCMQHLEYPLTFGGGTKVELK | – | – | – | – | – | – | IC50 (human CCR8 [1]): 936 pM; Max Inhibition (%) (human CCR8 [1]): 99.2%; EC50 (cynomolgus CCR8 [2]): 578 pM; Max MFI (cynomolgus CCR8 [2]): 20900 MFI; EC50 (human CCR8 [3]): 534 pM; Max MFI (human CCR8 [3]): 7610 MFI
Hu149-2 (antibody, V domains shown, humanized IgG) VH: EVQLVESGGGLVQPGGSLKLSCAASGFTFNTYAMHWVRQASGKGLEWVGRIRSKSNFYATYYAASVKGRFTISRDDSKNTAYLQMNSLKTEDTAVYYCVRGRDYGSSYAMDYWGQGTLVTVSS VL: DIVMTQSPLSLPVTPGEPASISCRSSKSLLHSNANTYLYWFLQKPGQSPQLLIYRMSNLASGVPDRFSGSGSGTDFTLKISRVEAEDVGVYYCMQHLEYPLTFGGGTKVELK | – | – | – | – | – | – | IC50 (human CCR8 [1]): 12500 pM; Max Inhibition (%) (human CCR8 [1]): 39.5%; EC50 (cynomolgus CCR8 [2]): 146000 pM; Max MFI (cynomolgus CCR8 [2]): 1550 MFI; EC50 (human CCR8 [3]): 3480 pM; Max MFI (human CCR8 [3]): 1120 MFI
Hu149-24 (antibody, human IgG1, V domains shown, human IgG1) VH: EVQLVESGGGLVQPGGSLKLSCAASGFTFNTYAMNWVRQAPGKGLEWVGRIRSKSNFYATAYAASVKGRFTISRDDSKNTAYLQMNSLKTEDTAVYYCTRGKEYGSSYAMDYWGQGTLVTVSS VL: DIVMTQSPLSLPVTPGEPASISCRSSKSLLHSNANTYLYWFLQKPGQSPQLLIYRMSNLASGVPDRFSGSGSGTDFTLKISRVEAEDVGVYYCMQHLKYPLTFGGGTKVELK | – | – | – | – | – | – | EC50 (human CCR8 [4]): 166 pM; Max MFI (human CCR8 [4]): 844000 MFI; Max MFI (human CCR8 [5]): 198000 MFI; IC50 (human CCR8 [6]): 172 pM; Max Inhibition (%) (human CCR8 [6]): 106%; EC50 (cynomolgus CCR8 [7]): 161 pM; Max MFI (cynomolgus CCR8 [7]): 3.9e+06 MFI
Hu149-23 (antibody, human IgG1, V domains shown, human IgG1) VH: EVQLVESGGGLVQPGGSLKLSCAASGFTFNTYAMNWVRQAPGKGLEWVGRIRSKSNFYATAYAASVKGRFTISRDDSKNTAYLQMNSLKTEDTAVYYCTRGREYGSSYAMDYWGQGTLVTVSS VL: DIVMTQSPLSLPVTPGEPASISCRSSKSLLHSNANTYLYWFLQKPGQSPQLLIYRMSNLASGVPDRFSGSGSGTDFTLKISRVEAEDVGVYYCMQHLKYPLTFGGGTKVELK | – | – | – | – | – | – | EC50 (human CCR8 [4]): 265 pM; Max MFI (human CCR8 [4]): 816000 MFI; Max MFI (human CCR8 [5]): 161000 MFI; IC50 (human CCR8 [6]): 259 pM; Max Inhibition (%) (human CCR8 [6]): 103%; EC50 (cynomolgus CCR8 [7]): 369 pM; Max MFI (cynomolgus CCR8 [7]): 4.32e+06 MFI
149F2C10_G29A (antibody, V domains shown, NG site removed variant of 149F2C10) VH: EVQLVESGGGLVQPKGSLKLSCAASGFTFNTYAMNWVRQAPGKGLEWVARIRSKSNFYATYYADSVKDRFTISRDDSQDMLYLQMNILKTEDTAIYYCVRGRDYGSSYAMDYWGQGTSVTVSS VL: DIVMTQAAPSVPVTPGESVSISCRSSKSLLHSNANTYLYWFLQRPGQSPQLLIYRMSNLASGVPDRFSGSGSGTAFTLRISRVEAEDVGVYYCMQHLEYPLTFGAGTKLELK | 129 | 2040 | 173 | 4720 | 725 | 77.5 | –
149F2C10-CHO (antibody, V domains shown, The suffix -CHO is not explained) VH: EVQLVESGGGLVQPKGSLKLSCAASGFTFNTYAMNWVRQAPGKGLEWVARIRSKSNFYATYYADSVKDRFTISRDDSQDMLYLQMNILKTEDTAIYYCVRGRDYGSSYAMDYWGQGTSVTVSS VL: DIVMTQAAPSVPVTPGESVSISCRSSKSLLHSNGNTYLYWFLQRPGQSPQLLIYRMSNLASGVPDRFSGSGSGTAFTLRISRVEAEDVGVYYCMQHLEYPLTFGAGTKLELK | 142 | 1740 | 131 | 3310 | 934 | 80.1 | –
149F2C10_G29V (antibody, V domains shown, NG site removed variant of 149F2C10) VH: EVQLVESGGGLVQPKGSLKLSCAASGFTFNTYAMNWVRQAPGKGLEWVARIRSKSNFYATYYADSVKDRFTISRDDSQDMLYLQMNILKTEDTAIYYCVRGRDYGSSYAMDYWGQGTSVTVSS VL: DIVMTQAAPSVPVTPGESVSISCRSSKSLLHSNVNTYLYWFLQRPGQSPQLLIYRMSNLASGVPDRFSGSGSGTAFTLRISRVEAEDVGVYYCMQHLEYPLTFGAGTKLELK | 194 | 1900 | 211 | 4680 | 1040 | 72 | –
149F2C10_N28S (antibody, V domains shown, NG site removed variant of 149F2C10) VH: EVQLVESGGGLVQPKGSLKLSCAASGFTFNTYAMNWVRQAPGKGLEWVARIRSKSNFYATYYADSVKDRFTISRDDSQDMLYLQMNILKTEDTAIYYCVRGRDYGSSYAMDYWGQGTSVTVSS VL: DIVMTQAAPSVPVTPGESVSISCRSSKSLLHSSGNTYLYWFLQRPGQSPQLLIYRMSNLASGVPDRFSGSGSGTAFTLRISRVEAEDVGVYYCMQHLEYPLTFGAGTKLELK | 210 | 1420 | 333 | 2020 | 15000 | 44.9 | –
149F2C10_N28Q (antibody, V domains shown, NG site removed variant of 149F2C10; detected with anti-mouse IgG) VH: EVQLVESGGGLVQPKGSLKLSCAASGFTFNTYAMNWVRQAPGKGLEWVARIRSKSNFYATYYADSVKDRFTISRDDSQDMLYLQMNILKTEDTAIYYCVRGRDYGSSYAMDYWGQGTSVTVSS VL: DIVMTQAAPSVPVTPGESVSISCRSSKSLLHSQGNTYLYWFLQRPGQSPQLLIYRMSNLASGVPDRFSGSGSGTAFTLRISRVEAEDVGVYYCMQHLEYPLTFGAGTKLELK | 161 | 1640 | 209 | 2450 | 3070 | 55.7 | –
149F2C10_N28I (antibody, V domains shown, NG site removed variant of 149F2C10) VH: EVQLVESGGGLVQPKGSLKLSCAASGFTFNTYAMNWVRQAPGKGLEWVARIRSKSNFYATYYADSVKDRFTISRDDSQDMLYLQMNILKTEDTAIYYCVRGRDYGSSYAMDYWGQGTSVTVSS VL: DIVMTQAAPSVPVTPGESVSISCRSSKSLLHSIGNTYLYWFLQRPGQSPQLLIYRMSNLASGVPDRFSGSGSGTAFTLRISRVEAEDVGVYYCMQHLEYPLTFGAGTKLELK | 244 | 1650 | 314 | 1890 | 2250 | 65.3 | –
149F2C10_G29I (antibody, V domains shown, NG site removed variant of 149F2C10) VH: EVQLVESGGGLVQPKGSLKLSCAASGFTFNTYAMNWVRQAPGKGLEWVARIRSKSNFYATYYADSVKDRFTISRDDSQDMLYLQMNILKTEDTAIYYCVRGRDYGSSYAMDYWGQGTSVTVSS VL: DIVMTQAAPSVPVTPGESVSISCRSSKSLLHSNINTYLYWFLQRPGQSPQLLIYRMSNLASGVPDRFSGSGSGTAFTLRISRVEAEDVGVYYCMQHLEYPLTFGAGTKLELK | 146 | 2060 | 190 | 4640 | 1090 | 70.7 | –
